B1: Ms0535p1 (one IR mutated) (dsDNA)
DNA 1: CACACCGTTCCATGCATGTTCTTGCATGCAAGGCGCGCTA
DNA 2: TAGCGCGCCTTGCATGCAAGAACATGCATGGAACGGTGTG
B2: Ms0535p7 (both IRs mutated) (dsDNA)
DNA 1: CACACCGTTCCATGCATGTTCTCATGCATGGAACGCGCTA
DNA 2: TAGCGCGTTCCATGCATGAGAACATGCATGGAACGGTGTG
B3: Ms0535p2 (one IR mutated) (dsDNA)
DNA 1: CACACCGCCTTGCATGCATTCTCATGCATGGCCCGCGCTA
DNA 2: TAGCGCGGGCCATGCATGAGAATGCATGCAAGGCGGTGTG
B4: Ms0535p0 (dsDNA)
DNA 1: CACACCGCCTTGCATGCATTCTTGCATGCAAGGCGCGCTA
DNA 2: TAGCGCGCCTTGCATGCAAGAATGCATGCAAGGCGGTGTG

Columns and labels:
[1] = molecular target: T1, Ms0535 (GntR family, FadR/VanR-like regulator) (Mycobacterium smegmatis mc2 155, UniProt A0QPV8 1-212); experiment: EMSA; 0-4 uM protein; only one shifted band; settings: protein: recombinant; tags: His-tag (pET28a); chain copies: 2; blunt
[2] = molecular target: T1, Ms0535 (GntR family, FadR/VanR-like …); experiment: EMSA; 0-4 uM protein; settings: protein: recombinant; tags: His-tag (pET28a); chain copies: 2; blunt

Binder | binding result [1] | binding result [2]
B1 | binds | 
B2 |  | no binding
B3 | binds | 
B4 |  | binds

Reference: publication PMC4609117
